The values that follow come from patent publication US20120316071A1 (published 2012).

Assay [1] concerns the target T1, Recombinant Human DLL4 (delta-like protein 4) (human, UniProt Q9NR61 27-524).
T1 construct: Bought recombinant protein (R&D Systems Cat#1506-D4/CF); also called rHuman DLL4; Delta-like 4
The assay is described as follows: ECL Multispot (MSD) binding assay, DLL4 spotted on plate, 10 nM Fab.

In assay [2] the target is T2, Recombinant Human DLL4 (delta-like protein 4) (human, UniProt Q9NR61 27-524).
T2 construct: Bought recombinant protein (R&D Systems Cat#1506-D4/CF), spotted on the MSD plate; also called rHuman DLL4; Delta-like 4
The assay is described as follows: ECL Multispot (MSD) binding assay, DLL4 spotted on plate, 10 nM Fab; ECL signal over blank spot.

Assay [3] has as its target T3, rHuman CD44/Fc Chimera, CF (R&D Systems Cat#3660-CD) (human, UniProt P16070 21-220).
T3 construct: Bought recombinant protein; Fc part of the bought chimera not given
The assay is described as follows: ECL multispot (MSD), antigen spotted, 10 nM Fab; blank spot of this row 271.

The target of assay [4] is T4, rHuman Notch-1/Fc Chimera, CF (R&D Systems Cat#3647-TK) (human, UniProt P46531 19-526).
T4 construct: Bought recombinant protein; Fc part of the bought chimera not given
The description is as above.

For assay [5], the target named is T5, rHuman ErbB2/Fc Chimera, CF (R&D Systems Cat#1129-ER) (human, UniProt P04626 23-652).
T5 construct: Bought recombinant protein; also called human epidermal growth factor 2 receptor; Fc part of the bought chimera not given
Described as above.

The target of assay [6] is T6, rHuman IGF-1 sR, (IGF-1 sR), CF (R&D Systems Cat#391-GR) (human, UniProt P08069 31-932).
T6 construct: Bought recombinant soluble receptor; also called insulin-like growth factor-1 soluble receptor
The assay is described as above.

In assay [7] the target is T7, rHuman P-Cadherin/Fc Chimera, CF (R&D Systems Cat#861-PC) (human, UniProt P22223 108-654).
T7 construct: Bought recombinant protein; Fc part of the bought chimera not given
The description is as above.

Assay [8] addresses T8, rHuman Erythropoietin R/Fc Chimera, CF (R&D Systems Cat#963-ER) (human, UniProt P19235 25-250).
T8 construct: Bought recombinant protein; also called EPO R; EPO R/Fc; Fc part of the bought chimera not given
T8 sequence (looked up): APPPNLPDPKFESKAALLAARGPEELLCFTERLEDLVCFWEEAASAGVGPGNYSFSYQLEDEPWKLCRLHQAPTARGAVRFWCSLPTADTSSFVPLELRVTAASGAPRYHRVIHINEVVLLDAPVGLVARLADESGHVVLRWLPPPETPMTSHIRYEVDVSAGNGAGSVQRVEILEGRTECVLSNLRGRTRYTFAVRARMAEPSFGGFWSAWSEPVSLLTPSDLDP
Described as above.

For assay [9], the target named is T9, rHuman EGF R/Fc Chimera, CF (R&D Systems Cat#344-ER) (human, UniProt P00533 25-645).
T9 construct: Bought recombinant protein; also called epidermal growth factor receptor; Fc part of the bought chimera not given
The description is as above.

B1: Fab VH1-46_IGHD6-6*01_IGHJ1*01 S102A/S103P/S104F A106E & L6_IGKJ1*01 (Fab, V domains shown)
VH: QVQLVQSGAEVKKPGASVKVSCKASGYTFTSYYMHWVRQAPGQGLEWMGIINPSGGSTSYAQKFQGRVTMTRDTSTSTVYMELSSLRSEDTAVYYCAREEYAPFSEEYFQHWGQGTLVTVSS
VL: not shown
notes: Tested as Fab; also called APF A106E
On to B1, for which the Signal/Noise in assay [1] came to 4.3.

B2: Fab VH1-46_IGHD6-6*01_IGHJ1*01 S102A/S103P/S104F G55W & L6_IGKJ1*01 (Fab, V domains shown)
VH: QVQLVQSGAEVKKPGASVKVSCKASGYTFTSYYMHWVRQAPGQGLEWMGIINPSWGSTSYAQKFQGRVTMTRDTSTSTVYMELSSLRSEDTAVYYCAREEYAPFSAEYFQHWGQGTLVTVSS
VL: not shown
notes: Tested as Fab; also called APF G55W
B2: in assay [1], the Signal/Noise is 8.

B3: Fab VH1-46_IGHD6-6*01_IGHJ1*01 S102A/S103P/S104F H111S & L6_IGKJ1*01 (Fab, V domains shown)
VH: QVQLVQSGAEVKKPGASVKVSCKASGYTFTSYYMHWVRQAPGQGLEWMGIINPSGGSTSYAQKFQGRVTMTRDTSTSTVYMELSSLRSEDTAVYYCAREEYAPFSAEYFQSWGQGTLVTVSS
VL: not shown
notes: Fab format is as for m1 (CH1 with His6/Flag from Plasmid A, kappa CL from Plasmid C); also called APF H111S
Take B3: the Signal/Noise in assay [2] was determined as 24.

B4: Fab VH1-46_IGHD6-6*01_IGHJ1*01 S102A/S103P/S104F/H111F & L6_IGKJ1*01 (Fab, V domains shown)
VH: QVQLVQSGAEVKKPGASVKVSCKASGYTFTSYYMHWVRQAPGQGLEWMGIINPSGGSTSYAQKFQGRVTMTRDTSTSTVYMELSSLRSEDTAVYYCAREEYAPFSAEYFQFWGQGTLVTVSS
VL: not shown
notes: Fab format is as for m1 (CH1 with His6/Flag from Plasmid A, kappa CL from Plasmid C); also called APFF; H:APFF & L:wt
With B4, the Signal/Noise in assay [2] was found to be 42.5.

B5: Fab VH1-46_IGHD6-6*01_IGHJ1*01 S102A/S103P/S104F G55W & L6_IGKJ1*01 (Fab, V domains shown)
VH: QVQLVQSGAEVKKPGASVKVSCKASGYTFTSYYMHWVRQAPGQGLEWMGIINPSWGSTSYAQKFQGRVTMTRDTSTSTVYMELSSLRSEDTAVYYCAREEYAPFSAEYFQHWGQGTLVTVSS
VL: not shown
notes: Tested as Fab (CH1 with His6 and Flag tags, kappa CL); also called APF G55W
As for B5, the ECL signal in assay [3] was 159; in assay [4], 327; in assay [5], 334; in assay [6], 250; in assay [7], 391; in [8], 296. Further, the ECL signal in assay [9] turned out to be 312.
